We go through five molecules from patent EP4725970A1 (Fortvita Biologics Inc., dated 2026).

One may read the EC50 as the concentration at which the effect is half-maximal. The Kd is the equilibrium constant for the complex coming apart. As usually defined, the koff is the first-order rate constant of dissociation. By kon is commonly meant the second-order rate constant of association.

Changes are numbered by the printed parent chain. Read-outs that look alike come from different tables or passages of the source.

Assay [1] addresses T1, human BCMA (full-length, on cells) (human, UniProt Q02223 1-184).
T1 sequence: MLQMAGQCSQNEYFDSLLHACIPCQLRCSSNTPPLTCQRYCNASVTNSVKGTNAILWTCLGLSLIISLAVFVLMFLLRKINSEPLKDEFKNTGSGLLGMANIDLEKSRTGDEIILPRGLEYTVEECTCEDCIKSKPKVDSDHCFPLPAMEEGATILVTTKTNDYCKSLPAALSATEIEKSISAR
Kind of assay: cell-based or functional assay.

The target in assay [2] is T2, human GPRC5D (full-length, on cells) (human, UniProt Q9NZD1 1-345). In words: cell-based or functional assay.
Assay [3] concerns the target T2, human GPRC5D (full-length, on cells). In words: flow cytometry, GS-CHO-hGPRC5D cells.
Assay [4] addresses T1, human BCMA (full-length, on cells). In words: flow cytometry, GS-CHO-hBCMA cells. For orientation: Flow cytometry measures light scatter and fluorescence of single cells or particles in a stream.
Assay [5] addresses T3, cynomolgus monkey BCMA (full-length, on cells) (cynomolgus monkey, UniProt A0A2K5UD97 1-183).
T3 construct: whole, on cells; also called cynoBCMA; GS-CHO-cynoBCMA
Kind of assay: flow cytometry, GS-CHO-cynoBCMA cells.

Assay [6] concerns the target T1, human BCMA (full-length, on cells). In words: flow cytometry, GS-CHO-hBCMA cells. This is another data set of the same source.
Assay [7] has the same target. Kind of assay: cell-based or functional assay. This is another data set of the same source.
For assay [8], the target named is T2, human GPRC5D (full-length, on cells). In words: cell-based or functional assay. The source holds these as a separate data set.
Another assay has as its target T4, cyno CD3E&G-His/Free (cynomolgus monkey, UniProt Q95LI5 22-117; Q95LI7 23-113).
T4 construct: Bought recombinant heterodimer; also called monkey CD3 E&G
T4 sequence (looked up) 1: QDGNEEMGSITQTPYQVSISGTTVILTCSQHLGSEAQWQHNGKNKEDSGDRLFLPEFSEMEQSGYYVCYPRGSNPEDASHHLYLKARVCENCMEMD
T4 sequence (looked up) 2: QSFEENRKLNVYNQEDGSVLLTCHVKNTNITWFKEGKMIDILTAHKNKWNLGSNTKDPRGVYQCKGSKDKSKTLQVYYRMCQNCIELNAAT
In words: BLI (Octet), 1:1 fit. For orientation: In BLI a coated tip is dipped into the sample, and binding shifts an interference pattern.

The target of a further assay is T5, human CD3E&G-His/Free (human, UniProt P07766 23-126; P09693 23-116).
T5 construct: Bought recombinant heterodimer; 'His/Free' as printed (one chain His-tagged); also called human CD3 E&G heterodimer
In words: BLI (Octet), 1:1 fit.

The target of a further assay is T6, Cyno BCMA-His (cynomolgus monkey, UniProt A0A2K5UD97 1-53).
T6 construct: also called Cyno BCMA (ACRO BCA-C52H7); monkey BCMA
Kind of assay: BLI (Octet), 1:1 fit.

For assay [9], the target named is T7, cynomolgus monkey GPRC5D (full-length, on cells) (cynomolgus monkey, UniProt A0A2K5W6I7 1-300).
T7 construct: also called cynoGPRC5D; GS-CHO-cynoGPRC5D
In words: flow cytometry, GS-CHO-cynoGPRC5D cells.

In assay [10] the target is T1, human BCMA (full-length, on cells). Kind of assay: cell-based or functional assay. The source holds these as a separate data set.
Assay [11] deals with T2, human GPRC5D (full-length, on cells). In words: flow cytometry, GS-CHO-hGPRC5D cells. The source holds these as a separate data set.
The target is the same in assay [12]. Kind of assay: cell-based or functional assay. The source holds these as a separate data set.
Assay [13] has the same target. Kind of assay: cell-based or functional assay. The source holds these as a separate data set.
Assay [14] concerns the target T1, human BCMA (full-length, on cells). In words: cell-based or functional assay. This is another data set of the same source.
Assay [15] addresses T8, human CD3 (on Jurkat cells and human T cells) (human, UniProt P07766 23-207).
T8 construct: whole, on cells; the other chains of the complex on the cells are not described; also called CD3E
Kind of assay: flow cytometry, Jurkat cells.

Assay [16] deals with T8, human CD3 (on Jurkat cells and human T …). Kind of assay: flow cytometry, human CD4 T cells.
Assay [17] has the same target. In words: flow cytometry, human CD8 T cells.

T2 sequence (Q9NZD1 whole entry): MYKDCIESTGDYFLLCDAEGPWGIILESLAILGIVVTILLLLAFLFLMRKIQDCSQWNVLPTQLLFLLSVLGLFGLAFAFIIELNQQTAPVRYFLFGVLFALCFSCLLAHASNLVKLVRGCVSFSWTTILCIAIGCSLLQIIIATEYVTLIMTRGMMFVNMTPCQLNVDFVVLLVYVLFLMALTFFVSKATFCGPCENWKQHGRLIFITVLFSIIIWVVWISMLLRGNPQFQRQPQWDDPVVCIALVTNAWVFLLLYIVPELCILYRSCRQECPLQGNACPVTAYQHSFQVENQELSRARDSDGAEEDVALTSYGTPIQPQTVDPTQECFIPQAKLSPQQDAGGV
T8 sequence (P07766 23-207): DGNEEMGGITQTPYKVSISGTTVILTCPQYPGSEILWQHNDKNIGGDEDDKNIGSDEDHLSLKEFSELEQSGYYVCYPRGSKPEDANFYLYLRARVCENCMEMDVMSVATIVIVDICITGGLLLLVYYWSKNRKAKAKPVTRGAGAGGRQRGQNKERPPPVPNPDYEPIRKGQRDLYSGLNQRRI
T5 sequence (P07766 23-126, chain 1 of 2): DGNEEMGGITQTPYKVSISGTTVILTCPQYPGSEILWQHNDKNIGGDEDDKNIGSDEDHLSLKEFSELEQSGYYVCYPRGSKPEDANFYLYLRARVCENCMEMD
T5 sequence (P09693 23-116, chain 2 of 2): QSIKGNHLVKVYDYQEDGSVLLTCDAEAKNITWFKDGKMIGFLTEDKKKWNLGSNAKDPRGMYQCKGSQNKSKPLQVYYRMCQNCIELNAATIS
T6 sequence (A0A2K5UD97 entry or part of it): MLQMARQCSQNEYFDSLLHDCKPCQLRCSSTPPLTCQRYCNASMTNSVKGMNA
T3 sequence (A0A2K5UD97 entry or part of it): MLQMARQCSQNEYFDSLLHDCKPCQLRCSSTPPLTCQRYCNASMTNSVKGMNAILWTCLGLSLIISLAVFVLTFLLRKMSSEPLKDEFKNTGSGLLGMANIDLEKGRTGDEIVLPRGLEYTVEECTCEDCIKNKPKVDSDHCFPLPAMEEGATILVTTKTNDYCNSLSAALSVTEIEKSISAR
T7 sequence (A0A2K5W6I7 entry or part of it limits assumed, form in doubt): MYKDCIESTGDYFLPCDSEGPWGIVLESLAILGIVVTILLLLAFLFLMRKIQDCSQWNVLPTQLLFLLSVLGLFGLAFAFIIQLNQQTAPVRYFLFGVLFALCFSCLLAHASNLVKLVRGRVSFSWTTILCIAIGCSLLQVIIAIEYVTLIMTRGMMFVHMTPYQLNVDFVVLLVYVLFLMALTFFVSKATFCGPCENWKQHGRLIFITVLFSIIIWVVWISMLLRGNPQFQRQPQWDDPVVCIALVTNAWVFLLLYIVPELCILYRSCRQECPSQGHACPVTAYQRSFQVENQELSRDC

B1: F2 (87) (F2-SP34.87-SC38497) (trispecific antibody, human IgG1, kappa, lambda, L234A L235A)
heavy 1: not shown
light 1: DIVMTQSPDSLAVSLGERATINCRASESVDSYGITFMNWYQQKPGQPPKLLIYAASNQGSGVPDRFSGSGSGTDFTLTISSLQAEDVAVYYCQQSKEVPWTFGQGTKLEIKRTVAAPSVFIFPPSDEQLKSGTASVVCLLNNFYPREAKVQWKVDNALQSGNSQESVTEQDSKDSTYSLSSTLTLSKADYEKHKVYACEVTHQGLSSPVTKSFNRGEC
heavy 2: EVQLVESGGGLVQPGGSLKLSCAASGFTFNTYAMNWVRQASGKGLEWVGRIRSKYNNYATYYADSVKDRFTISRDDSKSTLYLQMNSLKTEDTAVYYCARHYNFGQSYVSWFAYWGQGTTVTVSSASTKGPSVFPLAPSSKSTSGGTAALGCLVKDYFPEPVTVSWNSGALTSGVHTFPAVLQSSGLYSLSSVVTVPSSSLGTQTYICNVNHKPSNTKVDKKVEPKSCDKTHTCPPCPAPEAAGGPSVFLFPPKPKDTLMISRTPEVTCVVVDVSHEDPEVKFNWYVDGVEVHNAKTKPREEQYNSTYRVVSVLTVLHQDWLNGKEYKCKVSNKALPAPIEKTISKAKGQPREPQVYTLPPSRDELTKNQVSLSCAVKGFYPSDIAVEWESNGQPENNYKTTPPVLDSDGSFFLVSKLTVDKSRWQQGNVFSCSVMHEALHNHYTQKSLSLSPGAGGGGSGGGGSDIQMTQSPSSLSASVGDRVTITCRASQSISRYLNWYQQKPGKAPKLLIYAASSLQSGVPSRFSGSGSGTDFTLTISSLQPEDFATYYCQQKYFDITFGCGTKVEIKGGGGSGGGGSGGGGSQLQLQESGPGLVKPSETLSLTCTVSGGSIVSSSYYWTWIRQPPGKCLEWIGSISIAGSTYYNPSLKSRVTISVDTSKNQFSLKLSSVTAADTAVYYCARDRGDQILDVWSQGTMVTVSS
light 2: QAVVTQEPSLTVSPGGTVTLTCRSSTGAVTTSNYANWVQQKPGQAPRGLIGGTNKRAPGVPARFSGSLLGDKAALTLLGAQPEDEAEYYCALWYSNLWVFGQGTKLTVLGQPKAAPSVTLFPPSSEELQANKATLVCLISDFYPGAVTVAWKADSSPVKAGVETTTPSKQSNNKYAASSYLSLTPEQWKSHRSYSCQVTHEGSTVEKTVAPTECS
With B1, the “EC50 of PBMC killing of H929 ko GPRC5D cells, donor1” value in [1] was 0.0304 nM. Besides, the “EC50 of PBMC killing of H929 ko BCMA cells (LDH)” value was found to be 0.0256 nM in assay [2] and 0.00739 nM in assay [12]. The EC50 in assay [3] stood at 98.6 nM; in assay [4], 120 nM; in [5], 117 nM; in assay [6], 211 nM; in assay [9] it was 196 nM; in [11] it was 94.1 nM. The entries for the “EC50 of PBMC killing of H929 ko GPRC5D cells (LDH)” value in [7] and in [10] were 0.428 nM and 0.0677 nM, respectively. Also, in [8], the “EC50 of PBMC killing of H929 ko BCMA cells, donor1” value came out at 0.0342 nM. For the same molecule, the figures for the Kd in the assay with cyno CD3E&G-His/Free, with human CD3E&G-His/Free and in the assay with Cyno BCMA-His were 71.1 nM, 55 nM and 1.55 nM, respectively. Also, the koff worked out at 0.0124 s⁻¹ in the assay with cyno CD3E&G-His/Free, 0.0131 s⁻¹ in the assay with human CD3E&G-His/Free and 0.000961 s⁻¹ with Cyno BCMA-His. Besides, the values for the kon with cyno CD3E&G-His/Free, in the assay with human CD3E&G-His/Free and in the assay with Cyno BCMA-His were 175000 M⁻¹ s⁻¹, 239000 M⁻¹ s⁻¹ and 621000 M⁻¹ s⁻¹, respectively.

B2: Inno-G-7F5.3 (trispecific antibody, human IgG1, kappa, lambda, L234A L235A)
heavy 1: not shown
light 1: not shown
heavy 2: not shown
light 2: DIQMTQSPSSLSASVGDRVTITCRASQSISSYLNWYQDKPGKAPKLLIYAASSLQSGVPSRFSGSGSGTDFTLTISSLQPEDFATYYCQQADLPAFAFGGGTKVEIKRTVAAPSVFIFPPSDECLKSGTASVVCLLNNFYPREAKVQWKVDNALQSGNSQESVTEQDSKDSTYSLSSTLTLSKADYEKHKVYACEVTHQGLSSPVTKSFNRGES
light 3: B1 light 2 with Q40K
On to B2, for which the “EC50 of PBMC killing of L363 cells” value in [13] amounted to 1.07 nM.

B3: Inno-G (hz5E12_sp34.24_Hel_triFab) (trispecific antibody, human IgG1, kappa, lambda, L234A L235A)
heavy 1: not shown
light 1: B1 light 1
heavy 2: not shown
light 2: B2 light 2
light 3: B1 light 2 with Q40K
As for B3, the “EC50 of PBMC killing of L363 cells” value in assay [13] worked out at 0.355 nM.

B4: Inno-B (Hel_sp34.24_497_triFab) (trispecific antibody, human IgG1, kappa, lambda, L234A L235A)
heavy 1: not shown
light 1: not shown
heavy 2: not shown
light 2: DIQMTQSPSSLSASVGDRVTITCRASQSISRYLNWYQDKPGKAPKLLIYAASSLQSGVPSRFSGSGSGTDFTLTISSLQPEDFATYYCQQKYFDITFGGGTKVEIKRTVAAPSVFIFPPSDECLKSGTASVVCLLNNFYPREAKVQWKVDNALQSGNSQESVTEQDSKDSTYSLSSTLTLSKADYEKHKVYACEVTHQGLSSPVTKSFNRGES
light 3: B1 light 2 with Q40K
Take B4: the “EC50 of PBMC killing of L363 cells” value in assay [14] came to 0.192 nM.

B5: F2 (24) (F2-SP34.24-SC38497) (trispecific antibody, human IgG1, kappa, lambda, L234A L235A)
heavy 1: not shown
light 1: B1 light 1
heavy 2: B1 heavy 2 with Y102G
light 2: B1 light 2
Turning to B5, the EC50 turned out to be 8.94 nM in assay [15]; 32.5 nM in assay [16]; 73.3 nM in assay [3]; 83 nM in assay [5]; 142 nM in [6]; 33.7 nM in assay [17]. For the same molecule, it took 108 nM to reach a half-maximal effect in [9] (EC50). For the same molecule, in [2], the “EC50 of PBMC killing of H929 ko BCMA cells (LDH)” value was 0.004 nM. Further, in assay [7], the “EC50 of PBMC killing of H929 ko GPRC5D cells (LDH)” value amounted to 0.475 nM. Moreover, the dissociation constant Kd in the assay with cyno CD3E&G-His/Free came to 12.5 nM; with human CD3E&G-His/Free, 17.2 nM. Also, the koff with cyno CD3E&G-His/Free amounted to 0.00597 s⁻¹; in the assay with human CD3E&G-His/Free, 0.00765 s⁻¹. Besides, the values for the kon with cyno CD3E&G-His/Free and with human CD3E&G-His/Free were 476000 M⁻¹ s⁻¹ and 445000 M⁻¹ s⁻¹, respectively.
